Laboratory results published in PMC5951767.

Assays:
[1] = molecular target: RelA (p65), subunit of RelA-p50 heterodimer;p50, subunit of RelA-p50 heterodimer (mouse (murine);mouse (murine), UniProt Q04207;P25799 19-321;39-350, |); test: stopped-flow fluorescence
RelA (p65) homodimer = RelA (p65) homodimer (UniProt Q04207 19-321); test: stopped-flow fluorescence
Sequence of RelA (p65) homodimer (Q04207 19-321): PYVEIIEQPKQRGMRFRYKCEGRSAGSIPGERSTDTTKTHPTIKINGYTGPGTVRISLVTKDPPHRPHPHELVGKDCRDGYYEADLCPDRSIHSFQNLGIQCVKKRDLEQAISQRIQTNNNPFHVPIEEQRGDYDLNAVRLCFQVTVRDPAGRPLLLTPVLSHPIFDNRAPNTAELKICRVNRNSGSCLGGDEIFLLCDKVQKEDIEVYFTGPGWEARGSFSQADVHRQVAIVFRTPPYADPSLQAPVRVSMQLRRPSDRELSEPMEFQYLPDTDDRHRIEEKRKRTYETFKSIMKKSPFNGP

Sequence of RelA (p65), subunit of RelA-p50 heterodimer;p50, subunit of RelA-p50 heterodimer (Q04207 19-321, chain 1 of 2): as the sequence (Q04207 19-321) above
Sequence of RelA (p65), subunit of RelA-p50 heterodimer;p50, subunit of RelA-p50 heterodimer (P25799 39-350, chain 2 of 2): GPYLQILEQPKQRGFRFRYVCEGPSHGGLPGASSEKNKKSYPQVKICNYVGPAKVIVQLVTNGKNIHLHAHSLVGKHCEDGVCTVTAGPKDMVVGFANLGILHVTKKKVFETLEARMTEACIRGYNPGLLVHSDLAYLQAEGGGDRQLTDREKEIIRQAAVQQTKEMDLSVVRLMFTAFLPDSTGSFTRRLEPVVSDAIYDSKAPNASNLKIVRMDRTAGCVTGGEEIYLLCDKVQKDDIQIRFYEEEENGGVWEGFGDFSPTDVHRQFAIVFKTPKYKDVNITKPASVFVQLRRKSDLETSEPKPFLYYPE

**Q.** Does GGGAAATTCCTCCCCCAGGAATTTCCC (structured_DNA, 5' AmMC6 amino linker) [IFN-kB hairpin] bind [1]?
**A.** binds

**Q.** Does GGGAAATTCCTCCCCCAGGAATTTCCC (structured_DNA, 5' AmMC6 amino linker) [IFN-kB hairpin] bind (RelA (p65) homodimer)?
**A.** binds
